{"source": "the DeepSol protein solubility set", "data": [{"test": "soluble on expression in E. coli; label from the status in PepcDB or PDB records", "values": [{"sequence": "MSTPSVHCLKPSPLHLPSGIPGSPGRQRRHTLPANEFRCLTPEDAAGVFEIEREAFISVSGNCPLNLDEVQHFLTLCPELSLGWFVEGRLVAFIIGSLWDEERLTQESLALHRPRGHSAHLHALAVHRSFRQQGKGSVLLWRYLHHVGAQPAVRRAVLMCEDALVPFYQRFGFHPAGPCAIVVGSLTFTEMHCSLRGHAALRRNSDR", "soluble on expression in E. coli": "soluble"}, {"sequence": "MSTPTPKVGFVSLGCPKALVDSERILTQLRMEGYEVVPTYEDADVVVVNTCGFIDSAKAESLEVIGEAIAENGKVIVTGCMGVEEHAIRDVHPSVLAVTGPQQYEQVVTAVHEVVPPKTEHNPLVDLVPPQGVKLTPRHYAYLKISEGCNHSCSFCIIPSMRGKLVSRPVGDVLSEAERLVKAGVKELLVISQDTSAYGVDLKYKTDFWNGQPVKTRMKELCEALSSMGVWVRLHYVYPYPNVDDVIPLMAAGKLLPYLDIPFQHASPKVLKAMKRPAFEDKTLARIKQWREICPELTIRSTFIVGFPGETEEDFQYLLDWLTEAQLDRVGCFQYSPVEGAPANELGLEPVPDEVKQDRWERFMAHQQAISAARLQLKVGKEIEVLIDEVDEQGAVGRSWADAPEIDGNVFVDSDELKPGDKVRVRITDADEYDLWAELVLEHHHHHH", "soluble on expression in E. coli": "soluble"}, {"sequence": "MSTQNEESEESARRPQSISHLARVEVEEPARKMRLMFGEKQVVFIRSDGLRSRVVRENMKKKLSQEIEKKEDLDTDSPNLTKVIDDVASGATGSSSLPSSSTESYSTSSSSSSSSSDLNSAYSSTSEPQATSSSAPESSTNSSASPEIKGNRNYHPPREFHGASTMVSHKRRWTYQTACDINAAEQSGDSEMYYIAHPLLPMPRGSGRNEVSTATRMNYAGQQIDNRKFRGQSKAVNQFANTESVTCEKCGMRYFFESIQMQERISYLLPPNEEDLPIALFECPVCKITTKVK", "soluble on expression in E. coli": "not soluble"}, {"sequence": "MSTRNSRSELEKTAVQLFRKLGTRTVLFHQAAAQALGLFPTDLKSADILNEAGPMTAGELGKKTGLSTGSVTALVDRLEKAGVCGSWKRTPNDRRRVVIVPLTASKKHIKDLFRPLSESTMDLCREYTEEELELIFSFVGKAADIMEEELERLKQ", "soluble on expression in E. coli": "not soluble"}, {"sequence": "MSTRTEAVKAYLLDLQDRICTALEQEDGNAHFVEDAWTRPAGGGGRTRVVENGAVIEKGGVNFSHVFGSNLPPSASAHRPELAGRGFEALGVSLVIHPHSPHVPTSHANVRFFIAEKEGEEPVWWFGGGFDLTPYYGVEEDCVHWHRVAERACAPFGDDVYPRYKAWCDSYFHLKHRDEPRGIGGLFFDDVNQWDFDTSFAFIRAIGDAFINAYLPIVRRRKAAAYTVQQREFQEFRRGRYVEFNLVYDRGTLFGLQSGGRTESILMSLPPQVRWGYDWKAAPGSEEARLTDYFLTDRDWLADNAAALEHHHHHH", "soluble on expression in E. coli": "not soluble"}, {"sequence": "MSTTIRFLRIVTSRAMSSSWSCNKCTFLNSASQKLNCMICLAPVSLPSLSPPPPSLSISANDEAKWACKACTFLNTYKNSICDVCGTRSPTSSLLGFQDLTDSGLESNDADSSVGSVFFPLRRCIKRKAMDDDVVEVDGASVVCSESQGVMKKNKEIETKGVASDSGTPLTCLKILSYNVWFREDLELNLRMRAIGHLIQLHSPHLICFQEVTPEIYDIFRKSNWWKAYSCSVSVDVAVSRGYYCMLLSKLGVKSFSSKSFGNSIMGRELSIAEVEVPGRKPLVFATSHLESPCPGPPKWDQMFSRERVEQAKEAIEILRPNANVIFGGDMNWCDKLDGKFPLPDKWVDVWEVLKPGDLGFTYDTKANPMLSGNRALQKRLDRILCRLDDYKLGGIEMVGKEAIPGLSYVKEKKVRGDIKKLELPVLPSDHFGLLVTLSPK", "soluble on expression in E. coli": "soluble"}, {"sequence": "MSTVLGTFKRMNEGWTQWPSYGHAFGVRLHKLRRLRGLTQDGLAEIANLSRNQISNLERNENSATKSSDPTMSTIYRLARALHVPPAALMPAVGDYVTDICQDTGHELPIDIAWPTSSQDTQKFSIQYRYRYWDEQSPLFDDEDWDDDHADDPDFGIAVMPETSDNNDADTTKGGDDTEDRGDVDKRDDDPLA", "soluble on expression in E. coli": "not soluble"}, {"sequence": "MSVAIDHDQTAKWDWPFQKGDGVVKVLDYEDHFEVGLEAHNFLPNEIDVKNIGEFLEIHMAHTTKDDKFGSITRSITRCYRLPKGTDPATIKSKLDGSGILHISGNKKK", "soluble on expression in E. coli": "not soluble"}, {"sequence": "MSVASNRDAVVTARRRFFGEGRSVDGMLAAPILRSWQRCAGQGLDASRSPLVEPPTARELREFQERHDRLGRLARPELNALQGDARLTGSVVILTDAAGVVLDMIGSDEFAGRAAQVALRPGVSWSEADTGTNAIGTALVERQPIAVHGAEHFFERHRILACAAAPLIDPRGVVAGALDMTGPAAIRHVHALGLMRLAAEQIEHRFFTEGFEHCTMLRLHTDRALLGTPREGVLAFADGVLVGANRHGLDLMNLDWPALDLARLETLLPGVRPSDQIQMLRGPRGTRLWGRLVDPLRRSPRAPAASMPAAVPAAPAGEVEPILDAEMMAQLSRTVRLVEAGIPVLLLGETGSGKDVFARRVHAESARRNKPFVPVNCAALPEGLIESELFGYEAGAFTGARRQGAPGLLRQADGGVLFLDEIGDMPLSLQSRLLRVLQDKQISPLGGGRPVPVDFALICATHQPLGTLLAAGAFRQDLYFRIAQYVVERPPVRHHPDRLALVRTLWRQLGGEDAGVQLSAEVERVLAAYNWPGNYRQLVGTLRALLVLGEPGHPVEVAALPAEITAAAGAVESQVSEMLPGTSLAEQTRSVLQAALDASGGNVSRAARRLGIDRSTYYRRLLKDKDRGR", "soluble on expression in E. coli": "not soluble"}, {"sequence": "MSVIDIHCHTAGVGAGGSGCFISTRLRESWRYRFYLASFGVTDAELEREGDGLVLRRLAERLAVSTRVQAAVVLALDGAIDSRGNLDQTRTELFIPNDFLSGQCRRYPNLLFGASVNPLRPDALDRLDAAAAASAVLVKWLPSIQGTDPADRRLVPFYRRLAELGLPLLTHTGEEQSFTRADNSLSDPNRLRLPLDEGVTVIAAHCATSGRSEGQRNRHRLLALFAAYPNLHADISSLTQVNRLGHLQWVLKHRELHERLLYGTDMPLPATALTSPWFHLFSLGPFAARRLAAIRNPWDRDVALKLALGMPEQILHNAAGLLRLALEHHHHHH", "soluble on expression in E. coli": "not soluble"}, {"sequence": "MSVKQEQCLIKVVSYDSNWPVQFEQEAERIKKALGSNCIEIHHIGSTSVPDLVAKPVIDMIPVVLDISKVDGANAAIRALGYEAKGEYGIPFRRYFQKGDNRLTHHAHVFELGNPEIERHLKFRDWMRMHPKDREAYARLKQELARRYSDDITAYCLGKEDFIATIDKKAGFNGLRMVKALTTREWDKVRHFRQFYFFDKAGLSDPYTWTFEHNAHVHFVLFQGSEITGYAHLQLWSHNRAALRIIVIDELKRNHQYGTRFLALCEKWLKSQGYQSLHVESSPDALKFYRNNGYIDMPFDDPDGYEGDPRDTAVGKIL", "soluble on expression in E. coli": "not soluble"}, {"sequence": "MSVYTTAQLLAVNEKKFKFDPLFLRIFFRETYPFSTEKVYLSQIPGLVNMALYVSPIVSGKVIRSRGGSTSEFTPGYVKPKHEVNPLMMTLRLPDEDPQNVADPVYRRRRIILQNMKDEELAIAQVEEKQAVSAVLSGKYTMTGEAFEPVEVDMGRSAGNNIVQAGAAAWSTRDKETYDPTDDIEAYALNARGVVNIIVFDPKGWALFRSFKAVEKKLDTRRGSNSELETAVKDLGMAVSYKGMFGDVAIVVYSGQYVENDVKKNYLPDLTMVLGNTQARGLRTYGCILDADAQREGIDAST", "soluble on expression in E. coli": "not soluble"}, {"sequence": "MSWMDKFDPKLQTMVKEVDAQIAPQLAKIDARILENQNKVLTSFQNHHVAESYLTGSTGYGHNDEGRDVLEAIYADVLGGEDALVRPQFVSGTHAIGVALLGLVRPGDDIVYITGKPYDTLQEVLGLAGNGIGAPQEYGIGVDYVDLLPNGAVDDDAVKARLNDKTKVVAIQRSRGYATRDSFTVDQIAAMIKVVRSVLPNVWIFVDNAYGEVSETKEPLEVGADVMAGSLFKNAGGGMAKTGGYIVGKKDLIDRISYRFTVPGLGGAEGATVGALADMYQGFFISPQTTGNAIKGAIFEAALFAKLGLDVSPAWDAPRTDLIQTVNFGNADDMVKFAKAVQANSPVDSFVTPIPEKMAGYEDQVIMAGGTFVAGSTIEFSGDGPLRPPYTLYLQGGLTYAHIKLATMGAAQSTFFDNLEHHHHHH", "soluble on expression in E. coli": "not soluble"}, {"sequence": "MSWQAYVDTSLLGTGKIDRAAIVSRAGDSVWAASAGFNLSPQEIQGLAAGFQDPPSMFGTGIILAGQKYITIRAEGRSIYGKLQKEGIICVATKLCILVSHYPETTLPGEAAKITEALADYLVGVGY", "soluble on expression in E. coli": "soluble"}, {"sequence": "MSYFKNAFNQKSLIDDSSVYLEPCSSSNFIELKRMHYNEENTKKTWDIIKSLDSVAVLLYEKESDCFVIVKQFRPAIYARRFHFKCDQDQTIDGYTYELCAGLVDKANKSLEEIACEEALEECGYQISPKNLETIGQFYSATGLSGSLQTLYYAEVHKNLKVSKGGGIDTERIEVLFLERSKALDFIMDFQYAKTTGLSLAILWHLKKFKNV", "soluble on expression in E. coli": "not soluble"}, {"sequence": "MSYLAKFTSPNQMKKLIKTVVADLLGSDEDLKTSSCHVISNLAANSQEMLKGYTSQIVPYVLLEKCREVPKEDEIAREKQEKWNDVWAELVPTTSSAVRLYKEEILNLAIDLVTNNEVWAVRKQAAVMIRVTFENLKKDAGIDVAKKSALSLRDTLNGRIWDGKIEILRALTSAFEAGGADFKRNMSATEIEDMETVLRREASKKNMEYAGAGLATIATWAVISESVESATWLAKKIDENVTKLIGARNDADSDDNMDGLSNLEKEIRASKLVTLNLTALAISLPAFNNAEEAESTLSQIAGYVKSTVIAWKSKQFFFNELAKSLEKWTPREPVAAGKLIDNILEQADELCAQQKKTVATDALQVVLRIQERSDRFGVDRNSVLDSVNRGVAGSETGLGSRFEAKMDTD", "soluble on expression in E. coli": "not soluble"}, {"sequence": "MSYLDTATDLPNQTLFLEYLNIALSNARRHHAQVGVLLCQINNWSDLKRKRGDAVANAFLQEAGQKLKSNLRNGDIVSRWDKDEFIFLVSKVQDTSSLLGIAQRLMKPVLAPVTAGGRPFQPEITYGVALYPVDGEQVNDLIGHIRENLQQLLPQPTLEHHHHHH", "soluble on expression in E. coli": "not soluble"}, {"sequence": "MSYNFELSYVKGCDSVHVVEHKTSAVYYPRSNGAAERFVDTLKRGIAKIKGEGSVNQQILNKFLISYRNTPHSALNGATPAECHFGRKIRTTMSLLMLTDRVLKVPKLTQYQQNMKHHYDLRNGARAKNFQVNQKVYVQVHQGNKSHWKHGVIRRKFGGVLYEVQVGDRMQKSHVNQIRTRCGDYSREDIFEETIYPLFFSTPGKFTSCSDNKSRSGATGGETNLFDSSGSSVNPRLSSDSFGFVGESGGDEMSRSDDPVVTSTVPSTDLNRGSRITSELKKKESNAVRGQPRGSSSTNNNDSSAPGYASRSHPTTDPSHSVRRSSRIRRVPDRYGSSVEHPLTSTGTPRGSTSTQLGQASTRNGSRYTASGRTPSCQGNRYSSIRGEGVTARRERVRSTWR", "soluble on expression in E. coli": "not soluble"}, {"sequence": "MSYPIKSTLIILRGNSASGKTTIAKQLQEHFGQGTLLVSQDVVRRDMLRVHDTIGNLSHDLLFEITKYGKGKCEFVILEGILNSHRYGDMLKELIHLFEGNAYTYYFDLSLKETIRRHNTREKRHEFGEDSLQKWYNPHDTIEVTRETIFTDNLTQKDIFDAILNDVMVRKLEHHHHHH", "soluble on expression in E. coli": "soluble"}, {"sequence": "MSYPSMSSFSTNVPDSENSSRSSVDGYNLKDTTSEKIKQFRENNKRKTSNSSSEEEPETEEGDPSRKLSSKSAEDKFVGRGIDAPRGRIANIRRESSCSVDSEAAHERLTKASQQVSTGFDDIALDSERSPGTSAEFRRRAPSFNTVIGEPISVVTNAFIPHSCSPSPTRQQADLIKQCYSPSTQQMVRPNISYSPSPRESPAQSPTRHAHKLKFQRAESPICRQPIKRKLTVTTLAETDIKRLFVPRSNTSPLVTDKTFPYPQNVGQLFESASTSSEFSSFSVPHSPGPLRAMTPLSSVSVGDQEENSPSVKDAEEKTTDNDEEMQDVEMSDNGTEVDDDLIRAATEAPLPDDDDQNDFAY", "soluble on expression in E. coli": "not soluble"}]}]}
